# Reference: the RNAGym collection of RNA variant scans (doi:10.1093/molbev/msab373)
# B1: Azoarcus group I ribozyme (parent)
# chain: GUGCCUUGCGCCGGGAAACCACGCAAGGGAUGGUGUCAAAUUCGGCGAAACCUAAGCGCCCGCCCGGGCGUAUGGCAACGCCGAGCCAAGCUUCGGCGCCUGCGCCGAUGAAGGUGUAGAGACUAGACGGCACCCACCUAAGGCAAACGCUAUGGUGAAGGCAUAGUCCAGGGAGUGGCGAAAGUCACACAAACCGG
# Variants of: B1
# Assay: reverse-splicing fitness (ratio to wild type); higher = more active; in vitro selection; Mg2+ level not given
# How it was run: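 An in vitro group I ribozyme library with randomized positions was T7-transcribed and gel-purified. In triplicate, 10 pmol RNA in EPPS pH 7.5 was reacted with 50 pmoles of a 30-nt RNA substrate for 1 h at 37 °C across several added MgCl2 levels (1–48 mM), then stopped with EDTA. Products were reverse transcribed from a substrate-complementary primer, PCR-amplified and sequenced (HiSeq 4000). Fitness is a variant's read proportion after selection over that before, normalised to wild type.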
row,Variant,reverse-splicing fitness
1,GUGCCUUGCGCCGGGAAACCACGCAAGGGAUGGUGUCAAAUUCGGCGAAACCUAAGCGCCCGCCCGGGCGUAUGGCAACGCCGAGCCAAGCUUCGGCGCCUGCGCCGAUGGAGGUGUAGCGACUAGACGGCACCCACCUAAGGCGAACGUUAUGGUGAAGGCAUAGUCCAGGGAGAGGCGAAAGUCACACAAACCGG [A111G A120C A145G C150U U176A],0.287
2,GUGCCUUGCGCCGGGAAACCACGCAAGGGAUGGUGUCAAAUUCGGCGAAACCUAAGCGCCCGCCCGGGCGUAUGGCAACGCCGAGCCAAGCUUCGGCGCCUGCGCCGAUGGAGGUGUAGCGACUAGACGGCACCCACCUAAGGCGAACGUUAUGGUGAAGGCAUAGUCCAGGGAGUGGCGAAAGUCACACAAACCGG [A111G A120C A145G C150U],0.582
3,GUGCCUUGCGCCGGGAAACCACGCAAGGGAUGGUGUCAAAUUCGGCGAAACCUAAGCGCCCGCCCGGGCGUAUGGCAACGCCGAGCCAAGCUUCGGCGCCUGCGCCGAUGGAGGUGUAGCGACUAGACGGCACCCACCUAAGGCGAACGUUAUGGUGAAGGCAUAGUCGAGGGAGUGGCGAAAGUCACACAAACCGG [A111G A120C A145G C150U C169G],0.0142
4,GUGCCUUGCGCCGGGAAACCACGCAAGGGAUGGUGUCAAAUUCGGCGAAACCUAAGCGCCCGCCCGGGCGUAUGGCAACGCCGAGCCAAGCUUCGGCGCCUGCGCCGAUGGAGGUGUAGCGACUAGACGGCACCCACCUAAGGCGAACGUUAUGGUGAAGGCAUAGUCUAGGGAGUGGCGAAAGUCACACAAACCGG [A111G A120C A145G C150U C169U],0.224
5,GUGCCUUGCGCCGGGAAACCACGCAAGGGAUGGUGUCAAAUUCGGCGAAACCUAAGCGCCCGCCCGGGCGUAUGGCAACGCCGAGCCAAGCUUCGGCGCCUGCGCCGAUGGAGGUGUAGCGACUAGACGGCACCCACCUAAGGCGAACGUUAUGGUGAAGGCAUAGUCAAGGGAGUGGCGAAAGUCACACAAACCGG [A111G A120C A145G C150U C169A],0.0158
6,GUGCCUUGCGCCGGGAAACCACGCAAGGGAUGGUGUCAAAUUCGGCGAAACCUAAGCGCCCGCCCGGGCGUAUGGCAACGCCGAGCCAAGCUUCGGCGCCUGCGCCGAUGGAGGUGUAGCGACUAGACGGCACCCACCUAAGGCGAACGUUAUGGUGAAGGCAUAGUCUAGGGAGAGGCGAAAGUCACACAAACCGG [A111G A120C A145G C150U C169U U176A],0.0456
7,GUGCCUUGCGCCGGGAAACCACGCAAGGGAUGGUGUCAAAUUCGGCGAAACCUAAGCGCCCGCCCGGGCGUAUGGCAACGCCGAGCCAAGCUUCGGCGCCUGCGCCGAUGGAGGUGUAGCGACUAGACGGCACCCACCUAAGGCGAACGUUAUGGUGAAGGCAUAGUCUAGGGAGCGGCGAAAGUCACACAAACCGG [A111G A120C A145G C150U C169U U176C],0.0607
8,GUGCCUUGCGCCGGGAAACCACGCAAGGGAUGGUGUCAAAUUCGGCGAAACCUAAGCGCCCGCCCGGGCGUAUGGCAACGCCGAGCCAAGCUUCGGCGCCUGCGCCGAUGGAGGUGUAGCGACUAGACGGCACCCACCUAAGGCGAACGUUAUGGUGAAGGCAUAGUCUAGGGAGGGGCGAAAGUCACACAAACCGG [A111G A120C A145G C150U C169U U176G],0.00537
9,GUGCCUUGCGCCGGGAAACCACGCAAGGGAUGGUGUCAAAUUCGGCGAAACCUAAGCGCCCGCCCGGGCGUAUGGCAACGCCGAGCCAAGCUUCGGCGCCUGCGCCGAUGGAGGUGUAGCGACUAGACGGCACCCACCUAAGGCGAACGUUAUGGUGAAGGCAUAGUCGAGGGAGGGGCGAAAGUCACACAAACCGG [A111G A120C A145G C150U C169G U176G],0.00469
10,GUGCCUUGCGCCGGGAAACCACGCAAGGGAUGGUGUCAAAUUCGGCGAAACCUAAGCGCCCGCCCGGGCGUAUGGCAACGCCGAGCCAAGCUUCGGCGCCUGCGCCGAUGGAGGUGUAGCGACUAGACGGCACCCACCUAAGGCGAACGUUAUGGUGAAGGCAUAGUCGAGGGAGAGGCGAAAGUCACACAAACCGG [A111G A120C A145G C150U C169G U176A],0.0195
11,GUGCCUUGCGCCGGGAAACCACGCAAGGGAUGGUGUCAAAUUCGGCGAAACCUAAGCGCCCGCCCGGGCGUAUGGCAACGCCGAGCCAAGCUUCGGCGCCUGCGCCGAUGGAGGUGUAGCGACUAGACGGCACCCACCUAAGGCGAACGUUAUGGUGAAGGCAUAGUCGAGGGAGCGGCGAAAGUCACACAAACCGG [A111G A120C A145G C150U C169G U176C],0.0192
12,GUGCCUUGCGCCGGGAAACCACGCAAGGGAUGGUGUCAAAUUCGGCGAAACCUAAGCGCCCGCCCGGGCGUAUGGCAACGCCGAGCCAAGCUUCGGCGCCUGCGCCGAUGGAGGUGUAGCGACUAGACGGCACCCACCUAAGGCGAACGGUAUGGUGAAGGCAUAGUCCAGGGAGGGGCGAAAGUCACACAAACCGG [A111G A120C A145G C150G U176G],0.00497
13,GUGCCUUGCGCCGGGAAACCACGCAAGGGAUGGUGUCAAAUUCGGCGAAACCUAAGCGCCCGCCCGGGCGUAUGGCAACGCCGAGCCAAGCUUCGGCGCCUGCGCCGAUGGAGGUGUAGCGACUAGACGGCACCCACCUAAGGCGAACGUUAUGGUGAAGGCAUAGUCAAGGGAGAGGCGAAAGUCACACAAACCGG [A111G A120C A145G C150U C169A U176A],0.016
14,GUGCCUUGCGCCGGGAAACCACGCAAGGGAUGGUGUCAAAUUCGGCGAAACCUAAGCGCCCGCCCGGGCGUAUGGCAACGCCGAGCCAAGCUUCGGCGCCUGCGCCGAUGGAGGUGUAGCGACUAGACGGCACCCACCUAAGGCGAACGUUAUGGUGAAGGCAUAGUCAAGGGAGCGGCGAAAGUCACACAAACCGG [A111G A120C A145G C150U C169A U176C],0.0149
15,GUGCCUUGCGCCGGGAAACCACGCAAGGGAUGGUGUCAAAUUCGGCGAAACCUAAGCGCCCGCCCGGGCGUAUGGCAACGCCGAGCCAAGCUUCGGCGCCUGCGCCGAUGGAGGUGUAGCGACUAGACGGCACCCACCUAAGGCGAACGUUAUGGUGAAGGCAUAGUCAAGGGAGGGGCGAAAGUCACACAAACCGG [A111G A120C A145G C150U C169A U176G],0.00456
